Here are results for four molecules from patent US8987433B2, “Variant isoprenoid producing enzymes and uses thereof” (Sapphire Energy, Inc., priority 2009, dated 2015).

Entries after “also recorded” stand apart in the source; their conditions may differ. Read-outs that look alike come from different tables or passages of the source.

Usually MIC stands for the lowest concentration found to suppress growth.

One series deals with E. coli XL1-blue cells. Briefly: Minimum inhibitory concentration (MIC) of cefotaxime on plated bacterial cells. It is filed as cell-based. The conditions noted are these: for MIC: Escherichia coli, XL1BLUECELLS, 24 h, about 1,000 cells per plate, 24 hours at 37° C. The method, then:
The minimum inhibitory concentration (MIC) of cefotaxime on bacterial cells lacking a plasmid is determined by plating 10 μl of a 10^−2 dilution of an overnight bacterial culture (about 1000 cfu) of E. coli XL1-blue cells (Stratagene, San Diego Calif.) on plates with varying levels of cefotaxime (Sigma, St. Louis Mo.), followed by incubation for 24 hours at 37° C.
Growth on cefotaxime is sensitive to the density of cells, and therefore similar numbers of cells needed to be plated on each plate (obtained by plating on plain LB plates). Platings of 1000 cells are consistently performed.
After digestion of the 900 bp product with the terminal restriction enzyme SfiI and agarose gel purification, the 900 bp product is ligated into the vector pUC182Sfi at the unique SfiI site with T4 DNA ligase (BRL, Gaithersburg Md.). The mixture is electroporated into E. coli XL1-blue cells and plated on LB plates with 0.32-0.64 μg/ml of cefotaxime (Sigma, St. Louis Mo.). The cells were grown for up to 24 hours at 37° C. and the resulting colonies are scraped off the plate as a pool and used as the PCR template for the next round of shuffling.
The transformants obtained after each of three rounds of shuffling are plated on increasing levels of cefotaxime. The colonies (>100, to maintain diversity) from the plate with the highest level of cefotaxime are pooled and used as the template for the PCR reaction for the next round.
Colonies obtained at 5-10 μg/ml are used for a third round similar to the first and second rounds except the cells are plated on LB plates having 80-160 μg/ml of cefotaxime. After the third round, colonies are obtained at 80-160 μg/ml, and after replating on increasing concentrations of cefotaxime, colonies could be obtained at up to 320 μg/ml after 24 hours at 37° C.
Growth on cefotaxime is dependent on the cell density, requiring that all the MICs be standardized (in our case to about 1,000 cells per plate). […] The 5 largest colonies grown at 1,280 μg/ml are plated for single colonies twice, and the SfiI inserts are analyzed by restriction mapping of the colony PCR products.

Series [1] deals with Gallus gallus FPP synthase (prenyl transferase activity). Briefly: Detection of prenyl transferase activity by luminescence measurement (PPi light assay). Particulars: DMAPP and IPP substrates, two hours at room temperature, in vitro synthesized Strep-Tag protein, versus wild type control. Format: biochemical. The method, then:
After gene assembly was completed, the NEB PURExpress in vitro protein synthesis kit was used according to the manufacturer's instructions to produce the variant FPP synthase proteins. After protein synthesis, Strep-Tag magnetic beads (IBA GmbH) were used to isolate the synthesized proteins, after washing the beads with assay buffer (25 mm HEPES pH 7.4, 10 mM MgCl2).
After synthesis, the activity level of the synthesized protein was measured as described in Example 5 by luminescence. Because most mutations are anticipated to be detrimental, it is unlikely for any pool of mutants to have a higher activity than the wild-type protein; pools with higher activity than […] must be deconvoluted to identify individual beneficial mutants.
The residue numbers are reported using the wild-type sequence numbering (SEQ ID NO: 1). The winning pools of nine variants are again resynthesized as discrete mutants and activity measurements are repeated.
This example describes the detection of prenyl transferase activity by luminescence measurement. In this example, an avian FPP synthase (Genbank Accession No. P08836) (SEQ ID NO: 1) was used as the parent prenyl transferase. The parent prenyl transferase was codon-optimized (SEQ ID NO: 21) and inserted into a vector. The nucleic acid sequence of SEQ ID NO: 22 was cloned into the bacterial expression vector pET-21a(+) (FIG. 10) under the control of a T7 promoter. A reaction buffer was produced by mixing 4 μl of 10× reaction buffer (250 mM HEPES pH 7.4, 100 mM MgCl2), 0.2 μl of 1M dithiothreitol, 1 μl of 10 mM DMAPP, 2 μl of 10 mM IPP, and 31.8 μl of water. 1 ng of the Avian FPP synthase (SEQ ID NO: 22) was added to the 39 μl of reaction buffer in a white 96 well microplate. The reaction was sealed with an adhesive plastic cover and allowed to progress for two hours at room temperature.
The PPi light detection and conversion reagents were prepared as instructed by the manufacturer (Lonza Group Ltd., Basel, Switzerland). After the two hour incubation, 40 μl of the conversion reagent, and 40 μl of the detection reagent were added to the wells of the microplate, and the microplate was sealed with an aluminum foil cover. After sixty minutes, the aluminum cover was removed, and the luminescence emitted from each well was measured with a 96 well plate reader in glow luminescence mode. The total luminescence is reported as Relative Luminescence Units (RLU). […] For this study, each pool is a mixture of variants at a single amino acid position.

Consider `CO/N=C(\C(=O)N[C@@H]1C(=O)N2C(C(=O)O)=C(COC(C)=O)CS[C@H]12)c1csc(N)n1` [cefotaxime], for which the MIC is about 0.02 µg/mL in the series on E. coli XL1-blue cells (read-out: MIC of cefotaxime, cells carrying the starting (unshuffled) gene on pUC18 derivative); 320 µg/mL in the series on E. coli XL1-blue cells (read-out: MIC of cefotaxime, mutant after the third round of shuffling and replating). Besides, the “cefotaxime level at which growth is obtained” value with E. coli XL1-blue cells (at higher cell densities, after third round of shuffling) is reported as “up to 1280 μg/ml”. For the same molecule, the “fold increased resistance to cefotaxime” value in the series on E. coli XL1-blue cells (selected mutant versus starting gene) is 16,000 fold.

B1: Thr269Tyr: Gallus gallus FPP synthase (SEQ ID NO: 1) point mutation Thr269Tyr (protein, listed as Gallus gallus)
chain: MHKFTGVNAKFQQPALRNLSPVVVEREREEFVGFFPQIVRDLTEDGIGHPEVGDAVARLKEVLQYNAPGGKCNRGLTVVAAYRELSGPGQKDAESLRCALAVGWCIELFQAFFLVADDIMDQSLTRRGQLCWYKKEGVGLDAINDSFLLESSVYRVLKKYCRQRPYYVHLLELFLQTAYQTELGQMLDLITAPVSKVDLSHFSEERYKAIVKYKTAFYSFYLPVAAAMYMVGIDSKEEHENAKAILLEMGEYFQIQDDYLDCFGDPALYGKVGTDIQDNKCSWLVVQCLQRVTPEQRQLLEDNYGRKEPEKVAKVKELYEAVGMRAAFQQYEESSYRRLQELIEKHSNRLPKEIFLGLAQKIYKRQK
For the molecule B1, the “prenyl transferase activity measured by luminescence, compared with wild type” value in series [1] is “increased prenyl transferase activity as compared to the wild type protein; also recorded: activity greater than wild-type”; in series [1] (listed as Thr—269_Tyr), “more activity than the wild type protein sequence”.

B2: Thr269Asp: Gallus gallus FPP synthase (SEQ ID NO: 1) point mutation Thr269Asp (protein, listed as Gallus gallus)
chain: MHKFTGVNAKFQQPALRNLSPVVVEREREEFVGFFPQIVRDLTEDGIGHPEVGDAVARLKEVLQYNAPGGKCNRGLTVVAAYRELSGPGQKDAESLRCALAVGWCIELFQAFFLVADDIMDQSLTRRGQLCWYKKEGVGLDAINDSFLLESSVYRVLKKYCRQRPYYVHLLELFLQTAYQTELGQMLDLITAPVSKVDLSHFSEERYKAIVKYKTAFYSFYLPVAAAMYMVGIDSKEEHENAKAILLEMGEYFQIQDDYLDCFGDPALDGKVGTDIQDNKCSWLVVQCLQRVTPEQRQLLEDNYGRKEPEKVAKVKELYEAVGMRAAFQQYEESSYRRLQELIEKHSNRLPKEIFLGLAQKIYKRQK
As to B2, the “prenyl transferase activity measured by luminescence, compared with wild type” value is given as “increased prenyl transferase activity as compared to the wild type protein; also recorded: activity greater than wild-type” in series [1] and “more activity than the wild type protein sequence” in series [1] (listed as Thr—269_Asp).

B3: Thr269Gln: Gallus gallus FPP synthase (SEQ ID NO: 1) point mutation Thr269Gln (protein, listed as Gallus gallus)
chain: MHKFTGVNAKFQQPALRNLSPVVVEREREEFVGFFPQIVRDLTEDGIGHPEVGDAVARLKEVLQYNAPGGKCNRGLTVVAAYRELSGPGQKDAESLRCALAVGWCIELFQAFFLVADDIMDQSLTRRGQLCWYKKEGVGLDAINDSFLLESSVYRVLKKYCRQRPYYVHLLELFLQTAYQTELGQMLDLITAPVSKVDLSHFSEERYKAIVKYKTAFYSFYLPVAAAMYMVGIDSKEEHENAKAILLEMGEYFQIQDDYLDCFGDPALQGKVGTDIQDNKCSWLVVQCLQRVTPEQRQLLEDNYGRKEPEKVAKVKELYEAVGMRAAFQQYEESSYRRLQELIEKHSNRLPKEIFLGLAQKIYKRQK
On to B3, for which the “prenyl transferase activity measured by luminescence, compared with wild type” value is listed as “increased prenyl transferase activity as compared to the wild type protein; also recorded: activity greater than wild-type” in series [1] and “more activity than the wild type protein sequence” in series [1] (listed as Thr—269_Gln).
